Reference: the supplement of paper PMC9112550, “Optimization of the antimicrobial peptide Bac7 by deep mutational scanning” (BMC Biology, 2022)

Test system: Escherichia coli TOP10
Experiment: shrunken log2 fold change of peptide-encoding DNA abundance (4.5 h post-induction vs induction); higher = less antimicrobial activity (less host growth inhibition)
Details: time post-induction: 4.5 h; library: site-saturation at positions 5, 18, 19, 20
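Further: peptides expressed intracellularly from a pBAD plasmid library in pooled LB shake-flask culture, induced with 0.3% L-arabinose, DNA abundance read by NGS, three biological replicates, DESeq2 with apeglm shrinkage.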

Sequence | shrunken log2 fold change
RRIRPRPPRLPRPRPRPYCKPRP | -0.896
RRIRKRPPRLPRPRPRPFDLPRP | 0.0686
RRIRRRPPRLPRPRPRPWQEPRP | 0.00489
RRIRYRPPRLPRPRPRPVHEPRP | 0.0155
RRIRWRPPRLPRPRPRPRDTPRP | 0.11
RRIRERPPRLPRPRPRPGYEPRP | -0.00204
RRIRWRPPRLPRPRPRPWSDPRP | -0.289
RRIRCRPPRLPRPRPRPTKYPRP | -0.192
RRIRNRPPRLPRPRPRPYVPPRP | -0.0142
RRIRARPPRLPRPRPRPRHYPRP | -0.158
RRIRWRPPRLPRPRPRPNTSPRP | -0.336
RRIRARPPRLPRPRPRPFPSPRP | 0.131
RRIRSRPPRLPRPRPRPHLTPRP | -0.0599
RRIRWRPPRLPRPRPRPKRHPRP | 0.467
RRIRARPPRLPRPRPRPWNEPRP | -0.19
RRIRRRPPRLPRPRPRPYSPPRP | 0.00204
RRIRFRPPRLPRPRPRPYQHPRP | -0.898
RRIRWRPPRLPRPRPRPRQPPRP | 0.743
RRIRARPPRLPRPRPRPPVAPRP | 0.77
RRIRCRPPRLPRPRPRPMMKPRP | -0.231
RRIRARPPRLPRPRPRPLNLPRP | 0.0866
RRIRMRPPRLPRPRPRPEEKPRP | 2.64
RRIRNRPPRLPRPRPRPCIHPRP | -0.355
RRIRCRPPRLPRPRPRPLHTPRP | -0.0899
RRIRQRPPRLPRPRPRPGYLPRP | 0.0613

Sequence | shrunken log2 fold change
RRIRARPPRLPRPRPRPRRAPRP | 0.831
RRIRARPPRLPRPRPRPMNNPRP | -0.186
RRIRGRPPRLPRPRPRPPFMPRP | 0.557
RRIRYRPPRLPRPRPRPFVQPRP | -0.0236
RRIRTRPPRLPRPRPRPCQLPRP | -0.161
RRIRIRPPRLPRPRPRPAEAPRP | 0.0803
RRIRRRPPRLPRPRPRPSWEPRP | 0.1
RRIRHRPPRLPRPRPRPSMDPRP | -0.828
RRIRWRPPRLPRPRPRPGGHPRP | 0.494
RRIRYRPPRLPRPRPRPWHRPRP | -0.172
RRIRERPPRLPRPRPRPLHLPRP | -0.0385
RRIRHRPPRLPRPRPRPAMGPRP | -0.336
RRIRHRPPRLPRPRPRPALYPRP | -0.033
RRIRKRPPRLPRPRPRPTNGPRP | 0.0599
RRIRCRPPRLPRPRPRPWRTPRP | -0.166
RRIRFRPPRLPRPRPRPGQKPRP | -0.0331
RRIRARPPRLPRPRPRPLAAPRP | 0.942
RRIRKRPPRLPRPRPRPMDGPRP | 0.231
RRIRDRPPRLPRPRPRPKVIPRP | -0.176
RRIRRRPPRLPRPRPRPWKFPRP | -0.0344
RRIRRRPPRLPRPRPRPRMEPRP | 0.0167
RRIRVRPPRLPRPRPRPFEQPRP | 0.162
RRIRARPPRLPRPRPRPGSEPRP | 0.0951
RRIRQRPPRLPRPRPRPIYDPRP | -0.213
RRIRNRPPRLPRPRPRPVCCPRP | -0.146

Sequence | shrunken log2 fold change
RRIRGRPPRLPRPRPRPMPQPRP | 0.255
RRIRYRPPRLPRPRPRPHPQPRP | -0.0957
RRIRMRPPRLPRPRPRPVLQPRP | 0.259
RRIRTRPPRLPRPRPRPFWLPRP | -0.0299
RRIRIRPPRLPRPRPRPQWQPRP | -0.182
RRIRIRPPRLPRPRPRPNKFPRP | -0.992
RRIRVRPPRLPRPRPRPSSKPRP | -0.0737
RRIRDRPPRLPRPRPRPFGEPRP | -0.0214
RRIRSRPPRLPRPRPRPNNSPRP | -0.724
RRIRVRPPRLPRPRPRPMARPRP | 0.0955
RRIRARPPRLPRPRPRPRKHPRP | 0.146
RRIRSRPPRLPRPRPRPLMRPRP | 0.948
RRIRRRPPRLPRPRPRPFHRPRP | 0.0574
RRIRRRPPRLPRPRPRPNCHPRP | -0.0432
RRIRYRPPRLPRPRPRPMPDPRP | -0.204
RRIRSRPPRLPRPRPRPSMEPRP | -0.0673
RRIRPRPPRLPRPRPRPWGVPRP | -0.128
RRIRQRPPRLPRPRPRPTWLPRP | 0.295
RRIRGRPPRLPRPRPRPMGPPRP | 0.846
RRIRPRPPRLPRPRPRPPRRPRP | 0.638
RRIRERPPRLPRPRPRPIHEPRP | 0.0218
RRIRMRPPRLPRPRPRPMMYPRP | -0.0758
RRIRLRPPRLPRPRPRPEHFPRP | 0.0339
RRIRHRPPRLPRPRPRPGKNPRP | -0.0444
RRIRSRPPRLPRPRPRPYSSPRP | -0.271

Sequence | shrunken log2 fold change
RRIRERPPRLPRPRPRPGEPPRP | -0.107
RRIRIRPPRLPRPRPRPSLMPRP | -0.246
RRIRMRPPRLPRPRPRPPDRPRP | 1.26
RRIRNRPPRLPRPRPRPHCWPRP | 0.0498
RRIRKRPPRLPRPRPRPAYNPRP | 0.0771
RRIRTRPPRLPRPRPRPTQTPRP | -0.0408
RRIRFRPPRLPRPRPRPGEGPRP | 0.375
RRIRDRPPRLPRPRPRPYPRPRP | 0.0039
RRIRIRPPRLPRPRPRPIPLPRP | 3.4
RRIRSRPPRLPRPRPRPGRMPRP | 0.167
RRIRARPPRLPRPRPRPEDRPRP | 0.381
RRIRNRPPRLPRPRPRPHIDPRP | -0.186
RRIRKRPPRLPRPRPRPGQIPRP | 0.00502
RRIRMRPPRLPRPRPRPDLGPRP | 0.11
RRIRGRPPRLPRPRPRPPEFPRP | 1.01
RRIRLRPPRLPRPRPRPIIQPRP | -0.439
RRIRWRPPRLPRPRPRPHDLPRP | -0.0525
RRIRWRPPRLPRPRPRPSRKPRP | 0.244
RRIRNRPPRLPRPRPRPHCLPRP | -0.466
RRIRSRPPRLPRPRPRPVLQPRP | 0.371
RRIRIRPPRLPRPRPRPTEMPRP | 0.112
RRIRTRPPRLPRPRPRPSWHPRP | -0.23
RRIRDRPPRLPRPRPRPEVYPRP | -0.00999
RRIRQRPPRLPRPRPRPYLDPRP | -0.286
RRIRDRPPRLPRPRPRPGSKPRP | -0.126

Sequence | shrunken log2 fold change
RRIRQRPPRLPRPRPRPVMPPRP | 0.0623
RRIRIRPPRLPRPRPRPPSPPRP | 0.168
RRIRLRPPRLPRPRPRPYNFPRP | -0.0404
RRIRHRPPRLPRPRPRPSIEPRP | -0.37
RRIRSRPPRLPRPRPRPLIIPRP | -0.678
RRIRHRPPRLPRPRPRPGAYPRP | -0.266
RRIRVRPPRLPRPRPRPFEKPRP | -0.00236
RRIRLRPPRLPRPRPRPAVGPRP | -0.0315
RRIRVRPPRLPRPRPRPFVYPRP | -0.439
RRIRARPPRLPRPRPRPCTWPRP | 0.108
RRIRGRPPRLPRPRPRPWSGPRP | 0.0316
RRIRMRPPRLPRPRPRPVWLPRP | 3.04
RRIRPRPPRLPRPRPRPQAHPRP | -0.243
RRIRNRPPRLPRPRPRPYIFPRP | -0.327
RRIRCRPPRLPRPRPRPCKIPRP | -0.543
RRIRGRPPRLPRPRPRPLNMPRP | -0.114
RRIRPRPPRLPRPRPRPHIHPRP | -0.82
RRIRHRPPRLPRPRPRPDMPPRP | 0.144
RRIRLRPPRLPRPRPRPKIQPRP | -0.131
RRIRHRPPRLPRPRPRPNVHPRP | -0.113
RRIRCRPPRLPRPRPRPMCTPRP | -0.098
RRIRKRPPRLPRPRPRPWRCPRP | -0.0463
RRIRWRPPRLPRPRPRPNQHPRP | -0.071
RRIRSRPPRLPRPRPRPFWEPRP | 0.0122
RRIRARPPRLPRPRPRPFEWPRP | -0.0571

Sequence | shrunken log2 fold change
RRIRWRPPRLPRPRPRPLQTPRP | 0.957
RRIRIRPPRLPRPRPRPGGVPRP | 0.0574
RRIRSRPPRLPRPRPRPTSFPRP | -0.189
RRIRHRPPRLPRPRPRPMPSPRP | 0.0183
RRIRSRPPRLPRPRPRPFIEPRP | -0.285
RRIRARPPRLPRPRPRPMIDPRP | 0.535
RRIRMRPPRLPRPRPRPLGQPRP | 0.738
RRIRNRPPRLPRPRPRPGPVPRP | 0.127
RRIRVRPPRLPRPRPRPLLCPRP | -0.642
RRIRYRPPRLPRPRPRPSFDPRP | -1.2
RRIRMRPPRLPRPRPRPLPSPRP | 0.942
RRIRPRPPRLPRPRPRPQMWPRP | 0.0355
RRIRKRPPRLPRPRPRPSHRPRP | -0.0303
RRIRYRPPRLPRPRPRPSTPPRP | -0.24
RRIRWRPPRLPRPRPRPWVHPRP | -0.597
RRIRFRPPRLPRPRPRPCPVPRP | -0.618
RRIRCRPPRLPRPRPRPLLEPRP | 0.234
RRIRERPPRLPRPRPRPLLVPRP | -0.441
RRIRPRPPRLPRPRPRPAGDPRP | 0.387
RRIRNRPPRLPRPRPRPHIHPRP | -0.445
RRIRARPPRLPRPRPRPWDYPRP | 0.00145
RRIRDRPPRLPRPRPRPDWMPRP | 0.0771
RRIRPRPPRLPRPRPRPYHMPRP | -0.316
RRIRVRPPRLPRPRPRPFCGPRP | -0.0559
RRIRERPPRLPRPRPRPRRAPRP | 0.566
